Measured values from patent US12428492B2, “Chimeric antigen receptors that bind to prostate specific membrane antigen” (Albert-Ludwigs-Universitaet Freiburg, priority 2019, dated 2025).

How the values were obtained:
[1] = test system: PSMA positive C4-2 and LNCaP tumor cells; test: Antigen-specific activation (CD69) of CAR expressing Jurkat cells by PSMA positive tumor cells; format: cell-based
Procedure: Panel (C) presents the antigen-specific-activation profile, CAR expressing Jurkat cells were stimulated for 24 h at an 1:1 effector-to-target ratio with either PSMA positive, PD-L1 negative C4-2 tumor cells (PSMA+/PDL1−), or PSMA positive, PD-L1 positive LNCaP tumor cells (PSMA+/PDL1+). As a negative control, CAR cells were co-cultured with PSMA negative DU145 tumor cells (PSMA−). Following 24 h stimulation, cells were harvested and activation profile was assessed by evaluating the percentage of cells that are positive for the activation marker CD69. Statistically significant differences are indicated by ****(P<0.001).
Panel (D) depicts the characterization of employed prostate cancer cell lines. The extent of PSMA target antigen expression (left) and PD-L1 (CD274) expression (right) was assessed on C4-2, LNCaP and DU145 prostate cell lines. For flow cytometric analysis, cells were either stained with 3/F11 1 antibody (anti-PSMA) or an anti-CD274 antibody. UT, untransduced T cells; PD-L1, Programmed cell death ligand 1; PSMA; prostate specific membrane antigen. As shown in panel D (left), both C4-2 and LNCaP tumor cells express the PSMA antigen while the DU145 is negative for the PSMA antigen. […]
The antigen-specific activation of transduced Jurkat T cells was measured by monitoring the expression of the activation marker CD69 upon antigen stimulation FIG. 9C. […]

PSMA-expressing cells = PSMA-expressing cells (Homo sapiens, UniProt Q04609); details: cited from earlier work
Chain of PSMA-expressing cells (Q04609 whole entry): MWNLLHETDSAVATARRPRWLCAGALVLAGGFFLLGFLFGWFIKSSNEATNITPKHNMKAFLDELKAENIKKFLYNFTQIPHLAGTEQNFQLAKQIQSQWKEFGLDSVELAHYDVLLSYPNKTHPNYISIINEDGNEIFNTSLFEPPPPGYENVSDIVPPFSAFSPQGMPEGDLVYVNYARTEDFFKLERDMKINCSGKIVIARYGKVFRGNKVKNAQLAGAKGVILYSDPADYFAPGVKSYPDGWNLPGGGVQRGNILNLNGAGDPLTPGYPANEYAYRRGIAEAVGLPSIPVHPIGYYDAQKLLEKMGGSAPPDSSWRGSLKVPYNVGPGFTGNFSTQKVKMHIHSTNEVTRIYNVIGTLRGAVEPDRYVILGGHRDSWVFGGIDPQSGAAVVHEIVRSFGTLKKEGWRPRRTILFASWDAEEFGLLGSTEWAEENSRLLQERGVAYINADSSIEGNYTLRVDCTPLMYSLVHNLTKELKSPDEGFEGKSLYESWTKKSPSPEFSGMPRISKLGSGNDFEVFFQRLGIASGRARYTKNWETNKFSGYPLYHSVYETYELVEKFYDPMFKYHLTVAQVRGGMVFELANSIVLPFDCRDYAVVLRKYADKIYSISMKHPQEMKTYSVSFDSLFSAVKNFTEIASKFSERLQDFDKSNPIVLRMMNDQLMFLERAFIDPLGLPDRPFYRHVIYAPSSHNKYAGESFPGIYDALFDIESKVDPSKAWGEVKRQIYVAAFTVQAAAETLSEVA

Molecule | CD69-positive cells ([1]; 24 h, 1:1 effector-to-target ratio, C4-2 or LNCaP) | activation of Jurkat cells upon antigen-specific sensitization ([1]; CD69) | Kd (PSMA-expressing cells)
A5-based CAR: 2nd generation anti-PSMA CAR: scFv A5, Fc IgG1 hinge, transmembrane domain, CD28 costimulatory domain, CD3ζ; SEQ ID NO:39 (protein, A5CAR28) MDFQVQIFSFLLISASVIMSRDVKLVESGGGLVKPGESLKLSCIASGFTFSDYYMYWVRQTPEKRLEWVAIISDGGYYTYYSDIIKGRFTISRDNAKNNLYLQMSSLKSEDTAMYYCTRGFPLLRHGAMDYWGLGTSVTVSSGGGGSGGGGSGGGGSDIQMTQSPKFMSTSVGDRVSVTCKASQNVDTNVAWYQQKPGQSPKALIYSASYRYSDVPDRFTGSESGTDFTLTISNVQSEDLAEYFCQQYDSYPYTFGGGTKLEIKSDPAEPKSPDKTHTCPPCPAPPVAGPSVFLFPPKPKDTLMIARTPEVTCVVVDVSHEDPEVKFNWYVDGVEVHNAKTKPREEQYNSTYRVVSVLTVLHQDWLNGKEYKCKVSNKALPAPIEKTISKAKGQPREPQVYTLPPSRDELTKNQVSLTCLVKGFYPSDIAVEWESNGQPENNYKTTPPVLDSDGSFFLYSKLTVDKSRWQQGNVFSCSVMHEALHNHYTQKSLSLSPGKKDPKFWVLVVVGGVLACYSLLVTVAFIIFWVRSKRSRLLHSDYMNMTPRRPGPTRKHYQAYAAARDFAAYRSLRVKFSRSADAPAYQQGQNQLYNELNLGRREEYDVLDKRRGRDPEMGGKPRRKNPQEGLYNELQKDKMAEAYSEIGMKGERRRGKGHDGLYQGLSTATKDTYDALHMQALPPR | about 70% | massive activation | –
A5: single-chain variable fragment generated by phage display from mAb 3/A12; SEQ ID NO:42 (protein, listed as Mus musculus, murine scFv A5) scFv: DVKLVESGGGLVKPGESLKLSCIASGFTFSDYYMYWVRQTPEKRLEWVAIISDGGYYTYYSDIIKGRFTISRDNAKNNLYLQMSSLKSEDTAMYYCTRGFPLLRHGAMDYWGLGTSVTVSSGGGGSGGGGSGGGGSDIQMTQSPKFMSTSVGDRVSVTCKASQNVDTNVAWYQQKPGQSPKALIYSASYRYSDVPDRFTGSESGTDFTLTISNVQSEDLAEYFCQQYDSYPYTFGGGTKLEIK | – | – | ~33 nM
